{
  "source": "patent US6429304",
  "about": "(University of California, dated 2002)",
  "binders": {"B1": {"name": "baculovirus-expressed S. purpuratus katanin p60 subunit with N-terminal His(6) tag (enzyme)", "chain": "HHHHHHMSVDEICENTKMGREYALLGNYETSLVYYQGVLQQIQKLLTSVHEPQRKHQWQTIRQELSQEYEHVKNITKTLNGFKSEPAAPEPAPNHRAAPFSHHQHAAKPAAAEPARDPDVWPPPTPVDHRPSPPYQRAARKDPPRRSEPSKPANRAPGNDRGGRGPSDRRGDARSGGGGRGGARGSDKDKNRGGKSDKDKKAPSGEEGDEKKFDPAGYDKDLVENLERDIVQRNPNVHWADIAGLTEAKRLLEEAVVLPLWMPDYFKGIRRPWKGVLMVGPPGTGKTMLAKAVATECGTTFFNVSSASLTSKYHGESEKLVRLLFEMARFYAPSTIFIDEIDSICSKRGTGSEHEASRRVKSELLIQMDGVSGPSAGEESSKMVMVLAATNFPWDIDEALRRRLEKRIYIPLPEIDGREQLLRINLKEVPLADDIDLKSIAEKMDGYSGADITNVCRDASMMAMRRRIQGLRPEEIRHIPKEELNQPSTPADFLLALQKVSKSVGKEDLVKYMAWMEEFGSV", "notes": "Expressed from pFastBac HT in Sf9 cells; also called p60 katanin; recombinant p60"}, "B2": {"name": "baculovirus-expressed S. purpuratus katanin p80 subunit with N-terminal His(6) tag (other)", "chain": "HHHHHHMATKRAWKLQELVAHSSNVNCLALGPMSGRVMVTGGEDKKVNLWAVGKQNCIISLSGHTSPVDSVKFNSSEELVVAGSQSGTMKIYDLEPAKIVRTLTGHRNSIRCMDFHPFGEFVASGSTDTNVKLWDVRRKGCIYTYKGHSDQVNMIKFSPDGKWLVTASEDTTIKLWDLTMGKLFQEFKNHTGGVTGIEFHPNEFLLASGSSDRTVQFWDLETFQLVSSTSPGASAVRSISFHPDGSYLFCSSQDMLHAFGWEPIRCFDTFSVGWGKVADTVIASTQLIGASFNATNVSVYVADLSRMSTTGIAQEPQSQPSKTPSGGAEEVPSKPLTASGRKNFVRERPHTTSSKQRQPDVKSEPERQSPTQDEGVKDDDATDIKDPDSYAKIFSPKTRVDHSPERNAQPFPAPLDVPGAQEPEPFKHPPKPAAAAAVAPVSRAPAPSASDWQPAQANPAPNRVPAATKPVPAQEVAPSRKPDPISTIIPSDRNKPANLDMDAFLPPAHAQQAPRVNAPASRKQSDSERIEGLRKGHDSMCQVLSSRHRNLDVVRAIWTAGDAKTSVESVVNMKDQAILVDILNIMLLKKSLWNLDMCVVVLPRLKELLSSKYENYVHTSCACLKLILKNFTSLFNQNIKCPPSGIDITREERYNKCSKCYSYLIATRGYVEEKQHVSGKLGSSFRELHLLLDQLE", "notes": "Expressed from pFastBac HT in Sf9 cells; also called p80 katanin; recombinant p80"}},
  "key": {"[1]": {"molecular_target": "T1, in vitro translated S. purpuratus p60 katanin with 37 amino acid N-terminal S-Tag (Strongylocentrotus purpuratus, UniProt O61577 1-516)", "T1 construct": "Made in a rabbit reticulocyte coupled transcription-translation reaction; not shown: 37 amino acid N-terminal S-Tag from pCITE-4a+ (Novagen)", "assay": "co-translation in rabbit reticulocyte lysate, co-immunoprecipitation with anti-p60 antibody", "method": "(§1) In vitro synthesis of proteins directly from plasmid DNAs was accomplished using the Single Tube Protein System 2, T7 (Novagen). […] For immunoprecipitations, lysates were incubated on ice with Pansorbin (Calbiochem)-antibody complexes, washed in NET buffer (50 mM Tris-Cl (pH 7.5), 150 mM NaCl, 0.1% Nonidet P40, 1 mM EDTA (pH 8.0), 0.25% gelatin and 0.02% sodium azide), then resuspended in SDS-PAGE sample buffer. In vitro translation products in both the pellets and supernatants from the immunoprecipitations were resolved by SDS-PAGE, transferred to nitrocellulose, probed with S-protein HRP conjugate (Novagen) and detected by chemiluminescence."}, "[2]": {"molecular_target": "T1, in vitro translated S. purpuratus p60 …", "assay": "co-translation in rabbit reticulocyte lysate, immunoprecipitation with anti-p60 antibody", "method": "as §1"}, "[3]": {"molecular_target": "B2", "assay": "co-immunoprecipitation from insect cells coinfected with p60 and p80 baculoviruses", "method": "Proteins bound to the resin were analyzed by SDS-PAGE followed by staining with Coomassie.\nThe immunoprecipitations were incubated at 4° C. for 1–2 hr, washed five times with 1 ml of ice-cold TBST, and eluted in SDS-containing sample buffer."}, "[4]": {"molecular_target": "the molecule itself", "assay": "rotary-shadowing electron microscopy of recombinant p60 on mica", "method": "Proteins were adsorbed to mica, freeze-dried, and platinum replicated according to established procedures (Heuser (1989) *J. Electron Microsc. Technique* 13):, 244–263; Heuser (1983) *J. Mol. Biol.* 169: 155–195). Sample preparation and imaging were similar to that used in the imaging of NSF (Hanson et al. (1997) *Cell* 90: 523–535), except that mica flakes were washed with a buffer consisting of 10 mM K-HEPES (pH 7.5), 2 mM MgCl_2, 1 mM nucleotide (ATP or ATP-γ-S)."}, "[5]": {"molecular_target": "B1", "assay": "baculovirus co-expression, metal affinity purification, Coomassie staining", "description": "We therefore sought to express the two subunits together and separately and then test their enzymatic activities."}, "[6]": {"molecular_target": "T2, native S. purpuratus katanin p80 subunit (sea urchin cytosol) (Strongylocentrotus purpuratus, UniProt O61585 1-690)", "T2 construct": "Endogenous protein of sea urchin eggs", "T2 sequence": "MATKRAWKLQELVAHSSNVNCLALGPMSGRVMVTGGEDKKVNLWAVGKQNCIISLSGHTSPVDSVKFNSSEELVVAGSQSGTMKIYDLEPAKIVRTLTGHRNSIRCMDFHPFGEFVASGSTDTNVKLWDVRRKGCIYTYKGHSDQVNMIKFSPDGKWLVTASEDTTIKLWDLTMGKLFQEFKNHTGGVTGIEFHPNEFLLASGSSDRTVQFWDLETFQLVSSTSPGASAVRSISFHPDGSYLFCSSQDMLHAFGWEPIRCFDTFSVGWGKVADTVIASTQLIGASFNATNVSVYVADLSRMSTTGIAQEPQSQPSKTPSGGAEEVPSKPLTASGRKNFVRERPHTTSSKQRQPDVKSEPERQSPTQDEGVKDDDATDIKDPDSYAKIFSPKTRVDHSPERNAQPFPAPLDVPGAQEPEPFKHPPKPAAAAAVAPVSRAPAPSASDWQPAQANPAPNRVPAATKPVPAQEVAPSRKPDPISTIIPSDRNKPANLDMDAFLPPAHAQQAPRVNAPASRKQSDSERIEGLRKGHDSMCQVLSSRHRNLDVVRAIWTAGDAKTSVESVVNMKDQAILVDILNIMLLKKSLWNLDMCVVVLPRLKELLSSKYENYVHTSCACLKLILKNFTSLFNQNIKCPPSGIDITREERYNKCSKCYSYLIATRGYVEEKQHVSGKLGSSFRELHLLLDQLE", "assay": "immunoprecipitation from sea urchin cytosol"}},
  "data": [
    {"binder": "p80 delta 1-302 (S. purpuratus p80 katanin with the entire WD40 domain deleted), in vitro translated with N-terminal S-Tag (other, the residues kept are derived from the deletion named; also called truncated p80; delta 1-302 derivative of p80; not shown: 37 amino acid N-terminal S-Tag from pCITE-4a+ (Novagen)) TTGIAQEPQSQPSKTPSGGAEEVPSKPLTASGRKNFVRERPHTTSSKQRQPDVKSEPERQSPTQDEGVKDDDATDIKDPDSYAKIFSPKTRVDHSPERNAQPFPAPLDVPGAQEPEPFKHPPKPAAAAAVAPVSRAPAPSASDWQPAQANPAPNRVPAATKPVPAQEVAPSRKPDPISTIIPSDRNKPANLDMDAFLPPAHAQQAPRVNAPASRKQSDSERIEGLRKGHDSMCQVLSSRHRNLDVVRAIWTAGDAKTSVESVVNMKDQAILVDILNIMLLKKSLWNLDMCVVVLPRLKELLSSKYENYVHTSCACLKLILKNFTSLFNQNIKCPPSGIDITREERYNKCSKCYSYLIATRGYVEEKQHVSGKLGSSFRELHLLLDQLE", "values": [
      {"measurement": "binding result", "setting": "[1]", "result": "binds"}
    ]},
    {"binder": "p80 delta 303-690 (C-terminal truncation of S. purpuratus p80 katanin containing only the WD40 domain), in vitro translated with N-terminal S-Tag (other, the residues kept are derived from the deletion named; also called delta 303-690 derivative of p80; not shown: 37 amino acid N-terminal S-Tag from pCITE-4a+ (Novagen)) MATKRAWKLQELVAHSSNVNCLALGPMSGRVMVTGGEDKKVNLWAVGKQNCIISLSGHTSPVDSVKFNSSEELVVAGSQSGTMKIYDLEPAKIVRTLTGHRNSIRCMDFHPFGEFVASGSTDTNVKLWDVRRKGCIYTYKGHSDQVNMIKFSPDGKWLVTASEDTTIKLWDLTMGKLFQEFKNHTGGVTGIEFHPNEFLLASGSSDRTVQFWDLETFQLVSSTSPGASAVRSISFHPDGSYLFCSSQDMLHAFGWEPIRCFDTFSVGWGKVADTVIASTQLIGASFNATNVSVYVADLSRMS", "values": [
      {"measurement": "binding result", "setting": "[2]", "result": "no binding"}
    ]},
    {"binder": "B1", "values": [
      {"measurement": "binding result", "setting": "[3]", "result": "binds"},
      {"measurement": "binding result", "setting": "[4]", "result": "binds"}
    ]},
    {"binder": "B2", "values": [
      {"measurement": "p60:p80 molar ratio in the purified co-expressed protein", "setting": "[5]", "result": "~0.9", "unit": "mol p80 per mol p60"}
    ]},
    {"binder": "native S. purpuratus katanin p60 subunit (unfertilized egg extract / cytosol) (enzyme, Endogenous protein of sea urchin eggs; also called 60 kDa polypeptide) MSVDEICENTKMGREYALLGNYETSLVYYQGVLQQIQKLLTSVHEPQRKHQWQTIRQELSQEYEHVKNITKTLNGFKSEPAAPEPAPNHRAAPFSHHQHAAKPAAAEPARDPDVWPPPTPVDHRPSPPYQRAARKDPPRRSEPSKPANRAPGNDRGGRGPSDRRGDARSGGGGRGGARGSDKDKNRGGKSDKDKKAPSGEEGDEKKFDPAGYDKDLVENLERDIVQRNPNVHWADIAGLTEAKRLLEEAVVLPLWMPDYFKGIRRPWKGVLMVGPPGTGKTMLAKAVATECGTTFFNVSSASLTSKYHGESEKLVRLLFEMARFYAPSTIFIDEIDSICSKRGTGSEHEASRRVKSELLIQMDGVSGPSAGEESSKMVMVLAATNFPWDIDEALRRRLEKRIYIPLPEIDGREQLLRINLKEVPLADDIDLKSIAEKMDGYSGADITNVCRDASMMAMRRRIQGLRPEEIRHIPKEELNQPSTPADFLLALQKVSKSVGKEDLVKYMAWMEEFGSV", "values": [
      {"measurement": "binding result", "setting": "[6]", "result": "binds"}
    ]}
  ]
}
